From PMC8937215

Molecular target: CCR6-NES-eLOV-TEVcs-FLAG-Gal4-V5 receiver construct, expressed in HEK293T cells

TRACC UAS-mCherry reporter by confocal imaging, HEK293T in trans: percent of receiver cells in contact with sender cells with reporter expression above background: 80.2%
Substance: CCL20 sender construct (CCL20-18 aa linker-3xHA-pre-mGRASP), expressed in HEK293T cells (ligand)
